The record followed here is paper PMC3660597, “Investigation of Specificity Determinants in Bacterial tRNA-Guanine Transglycosylase Reveals Queuine, the Substrate of Its Eucaryotic Counterpart, as Inhibitor” (PLoS ONE, 2013).

Residue numbers refer to the chain shown, from its start. Numbers in names are those of the source.

Sequences and labels used below:
B1: Z. mobilis Tgt ("wild type" Tgt = Tgt(Tyr106Phe)) (Zymomonas mobilis subsp. mobilis ZM4 = ATCC 31821; V233G/Y106F) (protein)
chain: VEATAQETDRPRFSFSIAAREGKARTGTIEMKRGVIRTPAFMPVGTAATVKALKPETVRATGADIILGNTYHLMLRPGAERIAKLGGLHSFMGWDRPILTDSGGFQVMSLSSLTKQSEEGVTFKSHLDGSRHMLSPERSIEIQHLLGSDIVMAFDECTPYPATPSRAASSMERSMRWAKRSRDAFDSRKEQAENAALFGIQQGSVFENLRQQSADALAEIGFDGYAVGGLAGGEGQDEMFRVLDFSVPMLPDDKPHYLMGVGKPDDIVGAVERGIDMFDCVLPTRSGRNGQAFTWDGPINIRNARFSEDLTPLDSECHCAVCQKWSRAYIHHLIRAGEILGAMLMTEHNIAFYQQLMQKIRDSISEGRFSQFAQDFRARYFARNS
notes: recombinant from pET9d-ZM-Y106F in E. coli BL21(DE3)/pLysS, purified; homodimer; all variants including "wild type" carry Tyr106Phe
B2: Z. mobilis Tgt ("wild type" Tgt = Tgt(Tyr106Phe)) (Zymomonas mobilis subsp. mobilis ZM4 = ATCC 31821; C158V/V233G/Y106F) (protein)
chain: B1 chain with C157V
notes: as for B1
B3: Z. mobilis Tgt ("wild type" Tgt = Tgt(Tyr106Phe)) (Zymomonas mobilis subsp. mobilis ZM4 = ATCC 31821; C158V/Y106F) (protein)
chain: B1 chain with C157V, G232V
notes: as for B1
B4: Z. mobilis Tgt ("wild type" Tgt = Tgt(Tyr106Phe)) (Zymomonas mobilis subsp. mobilis ZM4 = ATCC 31821; Y106F) (protein)
chain: B1 chain with G232V
notes: as for B1

Substrate in one series: NCc1c[nH]c2nc(N)[nH]c(=O)c12
The series is described as follows: [3H]-preQ1 incorporation into tRNA(Tyr), scintillation counting. The following applies: 15 µM E. coli tRNA(Tyr), 200 mM HEPES pH 7.3, 20 mM MgCl2, 37°C, labelled compound. Type of series: biochemical, Zymomonas mobilis. An excerpt:
[3H]-preQ1 incorporation into tRNA(Tyr), scintillation counting on Z. mobilis Tgt ("wild type" Tgt = Tgt(Tyr106Phe))
For orientation: Km means the concentration of substrate that gives half-maximal velocity. Broadly, the kcat is the maximal rate divided by the concentration of active sites. For the protein B1, the Km is 0.6 ± 0.1 µM and the kcat was determined as 0.0063 ± 0.0002 s⁻¹.
B2: the Km stood at 13.5 ± 3.1 µM and the kcat was 0.001 ± 0.0003 s⁻¹.
For the protein B3, the Km stood at 16.0 ± 2.4 µM and the kcat amounted to 0.035 ± 0.0008 s⁻¹.
In the case of B4, the Km came out at 0.9 ± 0.1 µM and the kcat turned out to be 0.106 ± 0.0027 s⁻¹.

Substrate in the next series: Nc1nc2nc[nH]c2c(=O)[nH]1
The series is described as follows: purified protein. The format is biochemical, Zymomonas mobilis. The following applies: 15 µM E. coli tRNA(Tyr), 200 mM HEPES pH 7.3, 20 mM MgCl2, 37°C, labelled compound.
For the protein B1, the Km is 1.0 ± 0.2 µM and the kcat was 0.0046 ± 0.0003 s⁻¹.
For the protein B2, the Km was 2.7 ± 0.3 µM and the kcat amounted to 0.0006 ± 0.0001 s⁻¹.
For B3, the Km came to 1.4 ± 0.2 µM and the kcat came to 0.0275 ± 0.0002 s⁻¹.
In the same order, the values of B4 are 1.2 ± 0.2 µM and 0.0558 ± 0.0001 s⁻¹.
